Assay [1] addresses T1, recombinant human interleukin 9 receptor alpha (hIL9R) fused, at the c-terminal, to a human IgG1 Fc (hIL9R-Fc) (human, UniProt Q01113 41-270).
T1 construct: Bought protein; also called Acro Biosystems, Cat. No. ILR-H5251; not shown: human IgG1 Fc fused at the C-terminal
T1 sequence: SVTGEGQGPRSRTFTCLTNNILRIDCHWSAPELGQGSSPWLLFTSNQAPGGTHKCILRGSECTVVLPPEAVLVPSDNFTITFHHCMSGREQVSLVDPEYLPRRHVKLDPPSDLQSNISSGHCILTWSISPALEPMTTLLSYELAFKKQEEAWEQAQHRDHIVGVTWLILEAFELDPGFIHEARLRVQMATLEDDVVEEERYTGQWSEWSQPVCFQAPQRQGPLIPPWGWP
The experiment in a line: selected from the clones positive in ELISA of periplasmic extracts on coated hIL9R-Fc. The source says: (§1) The antigen used for panning and ELISA screening was the same as the one used for immunization (Acro Biosystems, Cat. No. ILR-H5251), using uncoated blocked wells as negative control (blank) and hIgG1-Fc (Sino Biological, Cat. No. 10702-HNAH) coated wells as reference for Fc specific clones. Out of these 570 colonies tested by ELISA, 90 colonies scored positive for hIL9R-Fc only. Based on sequence data of the positive colonies, 29 different Nanobodies were distinguished, belonging to 14 different CDR3 groups (B-cell lineages)

The next assay deals with T2, hIgG1-Fc (human, UniProt P01857-1 99-330 = IgG part, limits assumed).
T2 construct: domain: Fc; also called Sino Biological, Cat. No. 10702-HNAH
The assay can be described thus: ELISA, crude periplasmic extracts on hIgG1-Fc coated wells as reference for Fc specific clones.
Description: as §1
On the technique in general: ELISA stands for enzyme-linked immunosorbent assay.

B1: 2SAT363 (VHH)
VHH: QVQLQESGGGLVQAGGSLRLSCTVSGSFFNINAMGWYRQAPGKQRELVATITAGGSTKYEDTVKGRFTISGDSAKNTVSLQMNSLKPEDTAVYYCAAWGTRIRDDYWGQGTQVTVSS
notes: Screened as soluble Nanobody in crude periplasmic extracts, expressed from pMECS-GG; also called T2; VHH anti-IL-9Rα 2SAT363
Take B1: the figures for the binding result (in assay [1]; in the assay with hIgG1-Fc) were “binds” and “no binding”, respectively.

B2: 2SAT57 (VHH)
VHH: QVQLQESGGGLVQAGGSLRLSCAASGSIFSINAMGWFRQAPGKQRELVAVISSGGSTNHADSVKGRFTISRDNAKNTVYLQMNSVKPEDTAVYYCLVATRGGTYEYWGQGTQVTVSS
notes: Screened as soluble Nanobody in crude periplasmic extracts, expressed from pMECS-GG; also called T3; VHH anti-IL-9Rα 2SAT57
With B2, the binding result is recorded as “binds” in assay [1] and “no binding” with hIgG1-Fc.
